# Results reported in patent US20040266694A1 (published 2004).
# How the values were obtained:
# [1] = target: T1, Recombinant human Flt-1/Fc chimera (R&D Systems) (human, UniProt P17948-2 27-687, limits assumed); assay: receptor binding assay on immobilized Flt-1/Fc, bound peroxidase activity
# [2] = target: T1, Recombinant human Flt-1/Fc chimera (R&D …); assay: receptor binding assay on immobilized Flt-1/Fc; reference: the peptide
# [3] = target: T1, Recombinant human Flt-1/Fc chimera (R&D …); assay: competitive receptor binding assay on immobilized Flt-1/Fc; VEGF against 30 µM fluorescein labeled peptide (SEQ ID NO: 3)
# Experimental: The cocktails were allowed to equilibrate for 4 hours at room temperature. After incubation, micrititer plates were washed with buffer B for 10 times. […] The results are represented as average of triplicate measurement ±SD.
# [4] = target: T1, Recombinant human Flt-1/Fc chimera (R&D …); assay: phage ELISA on Flt-1/Fc captured by anti-Fc, anti-M13-HRP
# T1 sequence (P17948 other isoform, or with tags, fused parts or gaps mutant limits assumed): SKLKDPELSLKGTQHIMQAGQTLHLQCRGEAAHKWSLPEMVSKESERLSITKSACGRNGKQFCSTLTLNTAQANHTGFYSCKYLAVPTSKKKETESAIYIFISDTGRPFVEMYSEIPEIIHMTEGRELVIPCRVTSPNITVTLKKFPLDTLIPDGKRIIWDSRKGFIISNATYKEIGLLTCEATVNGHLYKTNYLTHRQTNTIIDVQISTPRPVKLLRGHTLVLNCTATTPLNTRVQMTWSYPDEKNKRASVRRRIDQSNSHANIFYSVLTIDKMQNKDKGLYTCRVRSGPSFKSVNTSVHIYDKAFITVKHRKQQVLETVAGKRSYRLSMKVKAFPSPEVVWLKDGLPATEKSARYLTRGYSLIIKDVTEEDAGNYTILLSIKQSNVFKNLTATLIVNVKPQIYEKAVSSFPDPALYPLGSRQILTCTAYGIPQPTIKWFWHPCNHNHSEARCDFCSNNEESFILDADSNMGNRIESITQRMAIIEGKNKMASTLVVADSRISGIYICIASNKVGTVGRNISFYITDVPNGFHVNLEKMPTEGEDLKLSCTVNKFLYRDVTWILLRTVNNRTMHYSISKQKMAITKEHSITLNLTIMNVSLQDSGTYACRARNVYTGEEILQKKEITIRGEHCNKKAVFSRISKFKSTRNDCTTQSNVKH
binder,measurement,setting,value
"Conjugate NO.: 1, peroxidase-peptide conjugate (other, horseradish, C-terminal amide (NH2); Cys 1 disulfide-linked through SPDP to peroxidase; activated with SPDP (N-succinimidyl-3-(2-pyridylthio)propionate), disulfide-linked to the peptide, also called Conjugate ID NO:1; Conjuguate ID NO 1) QLTPTFYDNSCPNVSNIVRDTIVNELRSDPRIAASILRLHFHDCFVNGCDASILLDNTTSFRTEKDAFGNANSARGFPVIDRMKAAVESACPRTVSCADLLTIAAQQSVTLAGGPSWRVPLGRRDSLQAFLDLANANLPAPFFTLPQLKDSFRNVGLNRSSDLVALSGGHTFGKNQCRFIMDRLYNFSNTGLPDPTLNTTYLQTLRGLCPLNGNLSALVDFDLRTPTIFDNKYYVNLEEQKGLIQSDQELFSSPNATDTIPLVRSFANSTQTFFNAFVEAMDRMGNITPLTGTQGQIRLNCRVVNSNS peptide: CNGYEIEWYSWVTHGMY",EC50,[1],100 nM
same,fold of half-maximum binding concentration against the peptide,[2],50 fold
"human recombinant VEGF (R&D Systems) (ligand, UniProt P15692-4 27-191, looked up, also called vascular endothelial factor) APMAEGGGQNHHEVVKFMDVYQRSYCHPIETLVDIFQEYPDEIEYIFKPSCVPLMRCGGCCNDEGLECVPTEESNITMQIMRIKPHQGQHIGEMSFLQHNKCECRPKKDRARQENPCGPCSERRKHLFVQDPQTCKCSCKNTDSRCKARQLELNERTCRCDKPRR",IC50,[3],5 nM
"phage clone V40 (control peptide insert encoded by ONV40, SEQ ID NO: 11) (other, bacteriophage M13, Clone label V40 tied to oligonucleotide ONV40 by its name only) FVGGWLVPEDERLYPEAETVESCLAKPHTENSFTNVWKDDKTLDRYANYEGCLWNATGVVVCTGDETQCYGTWVPIGLAIPENEGGGSEGGGSEGGGSEGGGTKPPEYGDTPIPGYTYINPLDGTYPPGTEQNPANPNPSLEESQPLNTFMFQNNRFRNRQGALTVYTGTVTQGTDPVKTYYQYTPVSSKAMYDAYWNGKFRDCAFHSGFNEDPFVCEYQGQSSDLPQPPVNAGGGSGGGSGGGSEGGGSEGGGSEGGGSEGGGSGGGSGSGDFDYEKMANANKGAMTENADENALQSDAKGKLDSVATDYGAAIDGFIGDVSGLANGNGATGDFAGSNSQMAQVGDGDNSPLMNNFRQYLPSLPQSVECRPFVFSAGKPYEFSIDCDKINLFRGVFAFLLYVATFMYVFSTFANILRNKES","ABSORBANCE, A 405",[4],0.025 A405
"phage clone V5.10 (control peptide insert encoded by ONV5.10, SEQ ID NO: 10) (other, bacteriophage M13, Clone label V5.10 tied to oligonucleotide ONV5.10 by its name only) PEPEVRLSPPGHIQSLAETVESCLAKPHTENSFTNVWKDDKTLDRYANYEGCLWNATGVVVCTGDETQCYGTWVPIGLAIPENEGGGSEGGGSEGGGSEGGGTKPPEYGDTPIPGYTYINPLDGTYPPGTEQNPANPNPSLEESQPLNTFMFQNNRFRNRQGALTVYTGTVTQGTDPVKTYYQYTPVSSKAMYDAYWNGKFRDCAFHSGFNEDPFVCEYQGQSSDLPQPPVNAGGGSGGGSGGGSEGGGSEGGGSEGGGSEGGGSGGGSGSGDFDYEKMANANKGAMTENADENALQSDAKGKLDSVATDYGAAIDGFIGDVSGLANGNGATGDFAGSNSQMAQVGDGDNSPLMNNFRQYLPSLPQSVECRPFVFSAGKPYEFSIDCDKINLFRGVFAFLLYVATFMYVFSTFANILRNKES","ABSORBANCE, A 405",[4],0.039 A405
